Results on 1 substance are retold here after PMC6098134.

The assay addresses recombinant basigin (CD147), immunoglobulin domains 1 and 2 of the short isoform (aa 22-205) (UniProt P35613). The assay can be described thus: SPR; basigin immobilised on a CM5 chip by amine coupling (950 RU); RH5.1 injected as a two-fold dilution series from 2 µM, 120 s at 30 µL/min, 300 s dissociation; 20 °C; 10 mM HEPES pH 7.4, 150 mM NaCl, 3 mM EDTA, 0.005% Tween-20, 2 mg/mL dextran, 1 mg/mL salmon sperm DNA; kinetic sensorgrams fitted to a global 1:1 model.
Sequence of UniProt P35613 (P35613 other isoform, or with tags, fused parts or gaps): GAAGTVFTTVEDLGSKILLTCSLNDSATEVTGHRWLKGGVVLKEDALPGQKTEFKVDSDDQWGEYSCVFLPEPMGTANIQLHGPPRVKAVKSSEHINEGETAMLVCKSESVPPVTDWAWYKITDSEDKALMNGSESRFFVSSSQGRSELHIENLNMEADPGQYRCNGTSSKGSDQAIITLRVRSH

With “RH5.1 protein vaccine (full-length Plasmodium falciparum reticulocyte-binding protein homolog 5, PfRH5, aa E26-Q526, with C-tag) (from UniProt Q8IFM5 26-526) (natural protein)”, the Kd amounted to 1200 nM.
